Data taken from publication PMC11771877 (PLOS Pathogens, 2025).

Columns and labels:
Assay in all cases: pull-down
Conditions in all cases: both partners purified
[1] = biological target: original purified His-tagged N protein (SARS-CoV-2, UniProt P0DTC9 1-419)
[2] = biological target: R203M and D377Y mutant N protein, His-tagged (SARS-CoV-2, UniProt P0DTC9 1-419, R203M | D377Y)
[3] = biological target: Omicron mutant N protein, His-tagged (SARS-CoV-2, UniProt P0DTC9 1-419, P13L | RG203/204KR)

Measured: binding result

B1: purified RIG-I-GST protein (natural protein)
chain: MTTEQRRSLQAFQDYIRKTLDPTYILSYMAPWFREEEVQYIQAEKNNKGPMEAATLFLKFLLELQEEGWFRGFLDALDHAGYSGLYEAIESWDFKKIEKLEEYRLLLKRLQPEFKTRIIPTDIISDLSECLINQECEEILQICSTKGMMAGAEKLVECLLRSDKENWPKTLKLALEKERNKFSELWIVEKGIKDVETEDLEDKMETSDIQIFYQEDPECQNLSENSCPPSEVSDTNLYSPFKPRNYQLELALPAMKGKNTIICAPTGCGKTFVSLLICEHHLKKFPQGQKGKVVFFANQIPVYEQQKSVFSKYFERHGYRVTGISGATAENVPVEQIVENNDIIILTPQILVNNLKKGTIPSLSIFTLMIFDECHNTSKQHPYNMIMFNYLDQKLGGSSGPLPQVIGLTASVGVGDAKNTDEALDYICKLCASLDASVIATVKHNLEELEQVVYKPQKFFRKVESRISDKFKYIIAQLMRDTESLAKRICKDLENLSQIQNREFGTQKYEQWIVTVQKACMVFQMPDKDEESRICKALFLYTSHLRKYNDALIISEHARMKDALDYLKDFFSNVRAAGFDEIEQDLTQRFEEKLQELESVSRDPSNENPKLEDLCFILQEEYHLNPETITILFVKTRALVDALKNWIEGNPKLSFLKPGILTGRGKTNQNTGMTLPAQKCILDAFKASGDHNILIATSVADEGIDIAQCNLVILYEYVGNVIKMIQTRGRGRARGSKCFLLTSNAGVIEKEQINMYKEKMMNDSILRLQTWDEAVFREKILHIQTHEKFIRDSQEKPKPVPDKENKKLLCRKCKALACYTADVRVIEECHYTVLGDAFKECFVSRPHPKPKQFSSFEKRAKIFCARQNCSHDWGIHVKYKTFEIPVIKIESFVVEDIATGVQTLYSKWKDFHFEKIPFDPAEMSK
notes: also called GST-RIG-I; RIG-I protein (labeled with GST tag); source: E. coli BL21, purified (GSH Magnetic Agarose Beads)
binds: [1] | [2] | [3]
